According to the supplement of paper PMC9732359:
± gives the uncertainty stated by the source.

Assay: protein stability index of a GFP-peptide fusion (yeast GPS) (PSI 1-4); higher = more stable; sorted into four equal gates, so the index is relative within each strain
Summary of the method: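 Plasmids in a pooled yeast library fused tiled 17-residue yeast protein peptides downstream of GFP and also expressed Cherry. Mid-log cultures grown without leucine were sorted into four equal gates by GFP/Cherry fluorescence ratio. Each gate's plasmids were PCR-amplified and Illumina-sequenced, and reads were matched to strains by barcodes. The protein stability index is derived by multiplying each gate's read frequency by its gate number and summing the results.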

| Sequence | protein stability index (doa10∆) | protein stability index (pdr5∆) | protein stability index (san1∆) | protein stability index (ubr1∆) |
| --- | --- | --- | --- | --- |
| FEKDLMAYFDENLNRNW [BRN1] | 2.93 ± 0.059 | 3.27 ± 0.063 | 3.14 ± 0.056 | 3.17 ± 0.057 |
| DVNLDVRIHSIQVLTEA [IRR1] | 2.19 ± 0.15 | 2.84 ± 0.2 | 2.78 ± 0.18 | 2.84 ± 0.13 |
| DETKGFDDNDSGNNYND [MED2] | 3.1 ± 0.055 | 3.07 ± 0.058 | 3.13 ± 0.053 | 3.1 ± 0.048 |
| ERVMKNKVEENLEGLYL [RPT2] | 3.12 ± 0.11 | 3.28 ± 0.067 | 3.07 ± 0.14 | 3.35 ± 0.12 |
| KSLKNNFYRPLLRSVLV [YML103C/NUP188] | 1.94 ± 0.051 | 1.87 ± 0.075 | 2.04 ± 0.085 | 2.29 ± 0.051 |
| DANLLGAEVLIKGSKLS [COR1] | 2.94 ± 0.072 | 2.85 ± 0.079 | 2.63 ± 0.12 | 2.63 ± 0.042 |
| TAASEARKHKLKTLVQG [RPS27A] | 2.1 ± 0.24 | 2.75 ± 0.22 | – | 3.04 ± 0.18 |
| KIIELMNKIFTIFKSGE [YML103C/NUP188] | 3.01 ± 0.08 | 2.22 ± 0.083 | 1.79 ± 0.11 | 2.8 ± 0.12 |
| VRNACKRLIAHDWLNAL [YCG1] | 2.74 ± 0.081 | 2.97 ± 0.1 | 2.83 ± 0.075 | 3.19 ± 0.064 |
| TPFSFGTANNNSNTTNQ [YJL041W/NSP1] | 3.25 ± 0.054 | 3.21 ± 0.045 | 3.13 ± 0.035 | 3.09 ± 0.041 |
| RQSSVGSLNATNFSPTP [SNF2] | 2.75 ± 0.049 | 2.98 ± 0.048 | 2.54 ± 0.044 | 2.96 ± 0.051 |
| TKAVEFSMGHIRSSSVS [MED4] | 3.26 ± 0.12 | 3.38 ± 0.093 | 3.18 ± 0.078 | 2.99 ± 0.078 |
| GNISSSTVKKKDIVNIS [REC8] | 3.03 ± 0.063 | 3.07 ± 0.056 | 2.88 ± 0.044 | 3.02 ± 0.05 |
| IDQVMMSVSDNDQALIK [RET1] | 2.9 ± 0.054 | 3.06 ± 0.066 | 3.13 ± 0.048 | 3.01 ± 0.051 |
| VREHYLRSDIPCLSRSC [DIS3] | 2.6 ± 0.051 | 2.72 ± 0.051 | 2.59 ± 0.051 | 2.44 ± 0.033 |
| NMKVTILHGSKSQEQRE [PRP28] | 3.42 ± 0.093 | 3.31 ± 0.15 | 3.25 ± 0.046 | 3.35 ± 0.06 |
| SDTSKPAFTFGAQKDNE [YJL041W/NSP1] | 3.32 ± 0.094 | 3.32 ± 0.087 | 3.36 ± 0.074 | 3.48 ± 0.059 |
| HTVFTSVNKNKRQAYAV [RPL4A] | – | 1.17 ± 0.2 | – | – |
| GFDIQKSCEPVSISTSV [SIR4] | 1.36 ± 0.091 | 1.73 ± 0.13 | 1.51 ± 0.27 | 1.56 ± 0.07 |
| IYEEVRAVLKSFLESVI [HHF1] | 3 ± 0.21 | 3.13 ± 0.15 | 2.26 ± 0.15 | 2.66 ± 0.097 |
| LKNKREIYRISFQLSKI [RPS9B] | 3.34 ± 0.18 | 3.66 ± 0.16 | 3.54 ± 0.062 | 3.38 ± 0.12 |
| WKDFTVEIAFLFRAIYL [YCG1] | 2.36 ± 0.1 | 2.36 ± 0.064 | 2.48 ± 0.1 | 2.26 ± 0.071 |
| SVQDLGGSATARHKKKV [YML031W/NDC1] | 2.7 ± 0.12 | 1.75 ± 0.069 | 1.57 ± 0.21 | 2.05 ± 0.057 |
| AKLSERSNGSVASLSKR [YJL039C/NUP192] | 2.33 ± 0.052 | 2.06 ± 0.043 | 1.81 ± 0.054 | 1.89 ± 0.035 |
| FQYGSRLPTFLKHKSIC [RPP1] | 2.24 ± 0.081 | 1.91 ± 0.055 | 1.68 ± 0.084 | 1.87 ± 0.063 |
| AVVGNNMLLDPAANESE [RRP42] | 1.47 ± 0.083 | 1.81 ± 0.073 | 2.48 ± 0.093 | 2.12 ± 0.048 |
| IPVIALTDLDSPSEFVD [RPS0A] | 2.68 ± 0.095 | 2.69 ± 0.091 | 2.74 ± 0.096 | 2.42 ± 0.06 |

| Sequence | protein stability index (doa10∆) | protein stability index (pdr5∆) | protein stability index (san1∆) | protein stability index (ubr1∆) |
| --- | --- | --- | --- | --- |
| VMNKNQETAISVAKLFK [RPT6] | 2.24 ± 0.19 | 1.72 ± 0.19 | – | – |
| QQPTASDNIASLQYINI [SMD1] | 3.27 ± 0.09 | 3.27 ± 0.098 | 3.13 ± 0.12 | 3.24 ± 0.078 |
| PSSEVYSPIEKESPWKI [RRP6] | 2.87 ± 0.15 | 3.03 ± 0.1 | 2.82 ± 0.12 | 3.29 ± 0.11 |
| FMLILALFVFYSPNTLG [COB] | 2.28 ± 0.074 | 2.15 ± 0.057 | 2.46 ± 0.056 | 2.52 ± 0.053 |
| AHRNGIKKPKTYKYPSL [RPL29] | 3.42 ± 0.11 | 2.96 ± 0.15 | 3.19 ± 0.28 | 2.95 ± 0.1 |
| GNSEAIPGLSAGVNNDN [RTT102] | 3.21 ± 0.086 | 3.53 ± 0.082 | 3.39 ± 0.069 | 3.47 ± 0.084 |
| DKKNKRLKFGHRLIATH [SNF2] | 2.02 ± 0.077 | 1.8 ± 0.057 | 1.85 ± 0.091 | 2 ± 0.056 |
| KCPGCLNITTVFSHAQT [RPS27A] | 2.76 ± 0.046 | 2.76 ± 0.051 | 2.9 ± 0.045 | 2.99 ± 0.043 |
| TRLVQLREFRITHNTNI [GRR1] | 1.23 ± 0.11 | 1.16 ± 0.06 | 1.04 ± 0.26 | 1.38 ± 0.09 |
| TQKTELEIDNKDSVTEC [SIR4] | 1.74 ± 0.061 | 3.15 ± 0.12 | 2.78 ± 0.14 | 2.5 ± 0.085 |
| PQKNVKIQVVDRHIGCV [PRE10] | – | 2.72 ± 0.27 | – | – |
| ARGLTATGKKSRGINKG [RPL15A] | 3.57 ± 0.19 | 3.37 ± 0.15 | 3.3 ± 0.071 | 3.16 ± 0.068 |
| SVFDATSDPVMHKQLAY [RPN1] | 2.28 ± 0.11 | 2.17 ± 0.077 | 1.79 ± 0.14 | 1.96 ± 0.082 |
| SRYILFEIIFPPTDTNV [POP5] | 1.54 ± 0.069 | 1.41 ± 0.052 | 1.53 ± 0.086 | 1.77 ± 0.047 |
| IELSDGSTFKVNQEFIF [YJL039C/NUP192] | 3.23 ± 0.088 | 3.07 ± 0.059 | 2.78 ± 0.061 | 3.13 ± 0.064 |
| LYQDMAARHRARFRSIH [RPL20A] | 2.81 ± 0.071 | 2.71 ± 0.048 | 2.96 ± 0.051 | 2.95 ± 0.07 |
| LFKKFNNDFKLSIDKVL [RET1] | 1.66 ± 0.12 | 1.8 ± 0.11 | 2.15 ± 0.15 | 2.67 ± 0.093 |
| YGIVAMAATATDKIGRS [FAS2] | 1.64 ± 0.063 | 1.82 ± 0.06 | 1.65 ± 0.092 | 2.26 ± 0.051 |
| YSKAAEPHAVSLAWSAD [ASC1] | 2.81 ± 0.19 | 2.87 ± 0.084 | 2.8 ± 0.065 | 2.72 ± 0.078 |
| NLQTFTHEQWSNIQRNV [SRP72] | 2.86 ± 0.065 | 3 ± 0.064 | 3.01 ± 0.058 | 2.93 ± 0.046 |
| SENRFPGWDFETEEIDP [RPL5] | 2.77 ± 0.14 | 2.78 ± 0.076 | 2.48 ± 0.078 | 2.5 ± 0.16 |
| PKNQQYRAFGSIWQVKD [MED7] | 2.45 ± 0.084 | 2.7 ± 0.082 | 2.54 ± 0.08 | 2.64 ± 0.063 |
| KYIALQVIVDIFSVHGN [YCG1] | 1.26 ± 0.081 | 1.36 ± 0.14 | 1.14 ± 0.14 | 1.75 ± 0.16 |
| HPFGHALVAGIERYPLK [RPL27A] | 2.53 ± 0.082 | 2.3 ± 0.098 | 2.49 ± 0.082 | 2.49 ± 0.062 |
| RIQNRVKLGLNSKMPTR [PRP8] | 2.48 ± 0.16 | 2.92 ± 0.1 | 2.74 ± 0.13 | 2.91 ± 0.13 |
| DTIDNVKSKIQDKEGIP [RPS31] | 3.22 ± 0.098 | 3.46 ± 0.089 | 3.38 ± 0.05 | 3.57 ± 0.075 |
